The target in data set [1] is human retinoid X receptor alpha (hRXRα) (human) (UniProt P19793).
Data set [2] concerns the target T1, rUR DNA-binding domain (UR-DBD) (Rattus norvegicus, UniProt Q62755 SEQ:72-168).
T1 sequence: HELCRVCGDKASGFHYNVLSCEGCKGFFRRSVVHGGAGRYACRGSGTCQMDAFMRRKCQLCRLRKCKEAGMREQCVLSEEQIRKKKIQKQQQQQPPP
The experiment in a line: EMSA; monomer binding. The note with it: tags: His tag, pET15b fusion, E. coli; label: 32P; 4-nt 5' overhangs. Here is the method:
(§1) The DNA-binding ability of this domain was tested by gel-shift analyses with a set of oligonucleotides that contained AGGTCA direct repeats with 0 to 6 oligonucleotide spacing (shown above).
(§2) A segment of UR containing the DBD and a few amino acids of the hinge region (rUR amino acid residues 72 to 168) was expressed as a fusion protein using the E. coli expression vector PET15b and purified by affinity (Ni^+2/His-tag) chromatography. The DNA-binding ability of this domain was tested by gel shift analysis with a set of oligonucleotides that contained AGGTCA direct repeats with 0 to 6 oligonucleotide spacing. The UR fusion protein bound to all these direct repeats as a monomer, and optimum spacing for homodimer binding was 4 and 5 nucleotides, which is identical to a retinoic acid receptor response element (RARE). A hinge region peptide antibody super-shifted UR DBD homodimers bound to DR-4 and DR-5. Supershifting of monomer was not observed.
For orientation: A gel shift assay detects complexes by their altered migration in electrophoresis.

Data set [3] has as its target T1, rUR DNA-binding domain (UR-DBD). The experiment in a line: EMSA; monomer plus homodimer; homodimer best on DR-4 and DR-5, supershifted by hinge antibody. The note with it: tags: His tag, pET15b fusion, E. coli; label: 32P; 4-nt 5' overhangs. The procedure:
as §1, §2

Data set [4] shares this target. Kind of data set: EMSA; monomer plus homodimer; optimum homodimer spacing, supershifted by hinge antibody. The note with it: tags: His tag, pET15b fusion, E. coli; label: 32P; 4-nt 5' overhangs. Here is the method:
as §1, §2

“rat ubiquitous nuclear receptor (rUR), full-length” came in with a CAT activity of a DR-4 CAT reporter in COS-1 cells, absence of 9c-RA in data set [1] of 4 to 5 fold.

B1: DR-2 (dsDNA)
DNA 1: GATCCTCAGGTCAAGAGGTCAGAAGCT
DNA 2: AGCTTCTGACCTCTTGACCTGAGGATC
As to B1, in data set [2], the binding result was “binds”.

B2: DR-3 (dsDNA)
DNA 1: GATCCTCAGGTCAAGGAGGTCAGAAGCT
DNA 2: AGCTTCTGACCTCCTTGACCTGAGGATC
Turning to B2, in data set [2], the binding result is recorded as “binds”.

B3: DR-4 (dsDNA)
DNA 1: GATCCTCAGGTCACAGGAGGTCAGAAGCT
DNA 2: AGCTTCTGACCTCCTGTGACCTGAGGATC
With B3, in data set [3], the binding result is “binds”.

B4: DR-0 (dsDNA)
DNA 1: GATCCTCAGGTCAAGGTCAGAAGCT
DNA 2: AGCTTCTGACCTTGACCTGAGGATC
For B4, the binding result in data set [2] is “binds”.

B5: DR-1 (dsDNA)
DNA 1: GATCCTCAGGTCAGAGGTCAGAAGCT
DNA 2: AGCTTCTGACCTCTGACCTGAGGATC
Turning to B5, the binding result in data set [2] was “binds”.

B6: DR-6 (dsDNA)
DNA 1: GATCCTCAGGTCACCAAGGAGGTCAGAAGCT
DNA 2: AGCTTCTGACCTCCTTGGTGACCTGAGGATC
Consider B6, for which, in data set [2], the binding result is given as “binds”.

B7: DR-5 (dsDNA)
DNA 1: GATCCTCAGGTCACCAGGAGGTCAGAAGCT
DNA 2: AGCTTCTGACCTCCTGGTGACCTGAGGATC
Regarding B7, the binding result in data set [4] is listed as “binds”.

The values are drawn from patent US5639616, “Isolated nucleic acid encoding a ubiquitous nuclear receptor” (Arch Development Corporation).
